Reference: US12065505B2, “Antibodies and antigen binding peptides for factor XIa inhibitors and uses thereof” (Bristol-Myers Squibb Company, priority 2021, dated 2024)
Substitutions are numbered along the chain they refer to. Read-outs that look alike come from different tables or passages of the source.

B1: 26D5-75602-348-F04-mAb: human IgG1f/kappa mAb; VH SEQ ID NO: 58, VL SEQ ID NO: 88 (antibody, V domains shown)
VH: EVQLVESGGGLIQPGGSLRLSCAASGFTVSSNQFSWVRQAPGKGLEWVSYFYPGGRTYYADSVKGRFTISRDNSKNTLYLQMNSLRAEDTAVYYCAKAGFGGGDYWGQGTLVTVSS
VL: DIQMTQSPSSVSASVGDRVTITCRASQGISSNLAWYQQKPGKAPKLLIYAASSLQSGVPSRFSGSGSGTDFTLTISSLQPEDFATYYCQQANSFPLTFGGGTKVEIK
B2: 26D5-295-A08-mAb: human IgG1f/kappa mAb; VH SEQ ID NO: 74, VL SEQ ID NO: 88 (antibody, V domains shown)
VH: B1 VH with S31E, Q33Y, F34M, Y50F, F51I, K97R
VL: B1 VL
B3: 26D5-295-G07-mAb: human IgG1f/kappa mAb; VH SEQ ID NO: 69, VL SEQ ID NO: 88 (antibody, V domains shown)
VH: B1 VH with Q33Y, F34M, Y50F, F51I, K97R, A98G
VL: B1 VL
B4: 25D5-75592-0348-A04-mAb: human IgG1f/kappa mAb; VH SEQ ID NO: 61, VL SEQ ID NO: 89 (antibody, V domains shown)
VH: B1 VH with Q33A, F34I, S35A, S49A, F51I, A96V, K97T
VL: B1 VL with L33N, A34Q, A50Y, A91G, S93E
B5: 26D5-295-C07-mAb: human IgG1f/kappa mAb; VH SEQ ID NO: 67, VL SEQ ID NO: 88 (antibody, V domains shown)
VH: B1 VH with Q33A, F34M, Y50F, F51I, P53S, K97R, A98G
VL: B1 VL
B6: 26D5-075017-343-F04-mAb: human IgG1f/kappa mAb; VH SEQ ID NO: 60, VL SEQ ID NO: 91 (antibody, V domains shown)
VH: B1 VH with Q33A, F34M, Y50F, F51I, K97R
VL: B1 VL with Y36W
B7: 26D5-296-D08-mAb: human IgG1f/kappa mAb; VH SEQ ID NO: 69, VL SEQ ID NO: 95 (antibody, V domains shown)
VH: B1 VH with Q33Y, F34M, Y50F, F51I, K97R, A98G
VL: B1 VL with G28Y, S30E
B8: 26D5-75746-0348-C07-mAb: human IgG1f/kappa mAb; VH SEQ ID NO: 57, VL SEQ ID NO: 92 (antibody, V domains shown)
VH: B1 VH with Q33A, F51I, P53S, K97A
VL: B1 VL with N32Q, L33V, A50P, S53N, Q55W, S93N
B9: 26D5-296-F07-mAb: human IgG1f/kappa mAb; VH SEQ ID NO: 71, VL SEQ ID NO: 94 (antibody, V domains shown)
VH: B1 VH with Q33Y, F34M, Y50F, F51I, P53S, K97R
VL: B1 VL with G28Y
B10: 26D5-296-C08-mAb: human IgG1f/kappa mAb; VH SEQ ID NO: 66, VL SEQ ID NO: 95 (antibody, V domains shown)
VH: B1 VH with T28Q, Q33A, F34M, Y50F, F51I, P53S, K97R, A98G
VL: B1 VL with G28Y, S30E
B11: 26D5-295-D07-mAb: human IgG1f/kappa mAb; VH SEQ ID NO: 75, VL SEQ ID NO: 88 (antibody, V domains shown)
VH: B1 VH with T28Q, S31E, Q33Y, F34M, Y50F, F51I, P53S, K97R, A98G
VL: B1 VL
B12: 26D5-296-B07-mAb: human IgG1f/kappa mAb; VH SEQ ID NO: 68, VL SEQ ID NO: 93 (antibody, V domains shown)
VH: B1 VH with T28Q, Q33A, F34M, Y50F, F51I, P53S, K97R
VL: B1 VL with N32W, A91H
B13: 26D5-295-F07-mAb: human IgG1f/kappa mAb; VH SEQ ID NO: 64, VL SEQ ID NO: 88 (antibody, V domains shown)
VH: B1 VH with S31E, Q33A, F34M, Y50F, F51I, P53S, K97R, A98G
VL: B1 VL
B14: 26D5-296-F03-mAb: human IgG1f/kappa mAb; VH SEQ ID NO: 70, VL SEQ ID NO: 88 (antibody, V domains shown)
VH: B1 VH with T28Q, Q33Y, F34M, Y50F, F51I, P53S, K97R
VL: B1 VL
B15: 26D5-295-E07-mAb: human IgG1f/kappa mAb; VH SEQ ID NO: 66, VL SEQ ID NO: 88 (antibody, V domains shown)
VH: B1 VH with T28Q, Q33A, F34M, Y50F, F51I, P53S, K97R, A98G
VL: B1 VL
B16: 26D5-296-H03-mAb: human IgG1f/kappa mAb; VH SEQ ID NO: 63, VL SEQ ID NO: 88 (antibody, V domains shown)
VH: B1 VH with Q33A, F34M, Y50F, F51I, K97R, A98G
VL: B1 VL
B17: 26D5-296-F08-mAb: human IgG1f/kappa mAb; VH SEQ ID NO: 73, VL SEQ ID NO: 95 (antibody, V domains shown)
VH: B1 VH with Q33Y, F34M, Y50F, F51I, R56E, K97R, A98G
VL: B1 VL with G28Y, S30E
B18: 26D5-296-G08-mAb: human IgG1f/kappa mAb; VH SEQ ID NO: 70, VL SEQ ID NO: 95 (antibody, V domains shown)
VH: B1 VH with T28Q, Q33Y, F34M, Y50F, F51I, P53S, K97R
VL: B1 VL with G28Y, S30E
B19: 25D5-296-A07-mAb: human IgG1f/kappa mAb; VH SEQ ID NO: 60, VL SEQ ID NO: 93 (antibody, V domains shown)
VH: B1 VH with Q33A, F34M, Y50F, F51I, K97R
VL: B1 VL with N32W, A91H
B20: 26D5-296-G07-mAb: human IgG1f/kappa mAb; VH SEQ ID NO: 65, VL SEQ ID NO: 94 (antibody, V domains shown)
VH: B1 VH with S31E, Q33Y, F34M, Y50F, F51I, P53S, K97R
VL: B1 VL with G28Y
B21: 26D5-296-G03-mAb: human IgG1f/kappa mAb; VH SEQ ID NO: 72, VL SEQ ID NO: 88 (antibody, V domains shown)
VH: B1 VH with T28Q, Q33Y, F34M, Y50F, F51I, K97R
VL: B1 VL
B22: 26D5-75576-348-B03-mAb: human IgG1f/kappa mAb; VH SEQ ID NO: 59, VL SEQ ID NO: 88 (antibody, V domains shown)
VH: B1 VH with Q33D, F34M, W36Y, S49A, F51I, P53S, A96V, K97T
VL: B1 VL

Test: SPR (Biacore) Protein A mAb capture, Compound A injected
Conditions: 37° C., binding to Compound A, for rank ordering only
Description: The binding of hybridoma expressed 26D5 parent mAb (VH SEQ ID NO: 83 and VL SEQ ID NO: 98 in IgG1 f format)(P1-072224) and affinity matured mAbs to Compound A was examined by SPR (Biacore™) using a protein A capture method. The running buffer was 1×PBS (phosphate buffered saline, pH 7.4) with 0.05% Tween 20 and 2% DMSO. Binding experiments were carried out at 37° C. Protein A was coated on a CM5 S-series sensor chip (Cytiva, Cat. No. 29149603) at high density (2000+ RUs of protein A). The immobilization of protein A was carried out using the standard amine coupling immobilization procedure recommended by the manufacturer. The affinity matured antibody was then captured at a concentration of 2 ug/mL on the protein A surface at a flow rate of 3 uL/min for 2 minutes. Compound A was then injected over the captured antibody at concentrations spanning 100-3 nM (100, 50, 25, 12.5, 6.25, 3.125 nM) (FIG. 10) and for screening concentrations spanning 100-3 nM (100, 33, 11 nM) for 2 minutes at a flow rate of 100 uL/min and allowed to dissociate for at least 450 seconds. The chip surface was regenerated after each cycle with a 40 second pulse of 10 mM Glycine, pH 1.5. Background binding to the protein A surface alone was used to subtract non-specific binding. All experiments were run on a Biacore T200 surface plasmon resonance instrument using Biacore T200 Control software v. 2. Data analysis was performed using Biacore T200 evaluation software v 3.1. Apparent affinities were determined for rank ordering only since dissociation rates were too slow to be measured by Biacore. The names of the mAbs in Table 10 refer to mAbs having the H and L chain sequences of the corresponding Fabs in Table 3 in an IgG1f format.

[1] = apparent affinity, read-out: KD

Molecule | Kd [1] | Ka (apparent) | Kd (apparent)
B1 | < 50 pM | 910000 M⁻¹ s⁻¹ | <5e-05 s⁻¹
B2 | 580 pM | 1e+06 M⁻¹ s⁻¹ | 0.00059 s⁻¹
B3 | 670 pM | 630000 M⁻¹ s⁻¹ | 0.00043 s⁻¹
B4 | 100 pM | 1e+06 M⁻¹ s⁻¹ | 0.00011 s⁻¹
B5 | 1600 pM | 200000 M⁻¹ s⁻¹ | 0.00033 s⁻¹
B6 | 110 pM | 1.5e+06 M⁻¹ s⁻¹ | 0.00017 s⁻¹
B7 | 590 pM | 770000 M⁻¹ s⁻¹ | 0.00045 s⁻¹
B8 | 100 pM | 2.4e+06 M⁻¹ s⁻¹ | 0.00024 s⁻¹
B9 | 580 pM | 760000 M⁻¹ s⁻¹ | 0.00044 s⁻¹
B10 | 590 pM | 530000 M⁻¹ s⁻¹ | 0.00031 s⁻¹
B11 | 1000 pM | 800000 M⁻¹ s⁻¹ | 0.00081 s⁻¹
B12 | 1800 pM | 290000 M⁻¹ s⁻¹ | 0.00042 s⁻¹
B13 | 940 pM | 180000 M⁻¹ s⁻¹ | 0.00017 s⁻¹
B14 | 540 pM | 720000 M⁻¹ s⁻¹ | 0.00039 s⁻¹
B15 | 1200 pM | 190000 M⁻¹ s⁻¹ | 0.00023 s⁻¹
B16 | 1100 pM | 160000 M⁻¹ s⁻¹ | 0.00018 s⁻¹
B17 | 680 pM | 870000 M⁻¹ s⁻¹ | 0.0006 s⁻¹
B18 | 490 pM | 800000 M⁻¹ s⁻¹ | 0.00039 s⁻¹
B19 | 1600 pM | 170000 M⁻¹ s⁻¹ | 0.00027 s⁻¹
B20 | 380 pM | 850000 M⁻¹ s⁻¹ | 0.00032 s⁻¹
B21 | 610 pM | 940000 M⁻¹ s⁻¹ | 0.00058 s⁻¹
B22 | < 60 pM | 880000 M⁻¹ s⁻¹ | <5e-05 s⁻¹
